From the Immune Epitope Database (IEDB)

What was measured:
[1] = target: HLA-A*01:01; test: IEDB peptide-MHC binding, purified MHC/direct/fluorescence; filed as Kd, often an IC50 or EC50 that approximates it; ≥ and ≤ were set here for values at or beyond the usual limits of such assays
[2] = target: HLA-A*02:01; test: as above
[3] = target: HLA-A*11:01; test: as above
[4] = target: HLA-A*26:01; test: as above; conditions: source organism: Ravn virus - Ravn, Kenya, 1987
[5] = target: HLA-A*31:01; test: as above
[6] = target: HLA-A*68:02; test: as above; conditions: source organism: Marburg virus - Musoke, Kenya, 1980
[7] = target: HLA-A*69:01; test: as above
[8] = target: HLA-B*07:02; test: as above
[9] = target: HLA-B*08:01; test: as above; conditions: source organism: Ravn virus - Ravn, Kenya, 1987
[10] = target: HLA-B*15:17; test: as above
[11] = target: HLA-B*18:01; test: as above
[12] = target: HLA-B*27:05; test: as above
[13] = target: HLA-B*40:01; test: as above
[14] = target: HLA-B*44:02; test: as above; conditions: source organism: Marburg virus - Musoke, Kenya, 1980
[15] = target: HLA-B*48:01; test: as above
[16] = target: HLA-B*57:01; test: as above
[17] = target: HLA-B*58:01; test: as above
[18] = target: HLA-B*15:09; test: IEDB peptide-MHC binding, purified MHC/competitive/fluorescence; filed as Kd, often an IC50 or EC50 that approximates it; ≥ and ≤ were set here for values at or beyond the usual limits of such assays
[19] = target: HLA-B*73:01; test: IEDB peptide-MHC binding, purified MHC/direct/fluorescence; filed as Kd, often an IC50 or EC50 that approximates it; ≥ and ≤ were set here for values at or beyond the usual limits of such assays; conditions: source organism: Homo sapiens
[20] = target: HLA-C*07:02; test: as above; conditions: source organism: Homo sapiens
[21] = target: HLA-A*03:01; test: as above; conditions: source organism: Mycobacterium tuberculosis
[22] = target: HLA-B*15:01; test: as above; conditions: source organism: Mycobacterium tuberculosis
[23] = target: HLA-B*38:01; test: as above; conditions: source organism: Mycobacterium tuberculosis str. Haarlem
[24] = target: HLA-B*46:01; test: as above; conditions: source organism: Mycobacterium tuberculosis
[25] = target: HLA-B*51:01; test: as above; conditions: source organism: Mycobacterium tuberculosis
[26] = target: HLA-B*39:01; test: IEDB peptide-MHC binding, purified MHC/competitive/fluorescence; filed as Kd, often an IC50 or EC50 that approximates it; ≥ and ≤ were set here for values at or beyond the usual limits of such assays; conditions: source organism: Mycobacterium tuberculosis variant bovis BCG str. Pasteur 1173P2
[27] = target: HLA-C*15:02; test: IEDB peptide-MHC binding, purified MHC/direct/fluorescence; filed as Kd, often an IC50 or EC50 that approximates it; ≥ and ≤ were set here for values at or beyond the usual limits of such assays; conditions: source organism: Vibrio vulnificus CMCP6
[28] = target: HLA-B*48:01; test: IEDB peptide-MHC binding, purified MHC/competitive/fluorescence; filed as Kd, often an IC50 or EC50 that approximates it; ≥ and ≤ were set here for values at or beyond the usual limits of such assays; conditions: source organism: Vibrio vulnificus CMCP6
[29] = target: HLA-B*40:02; test: IEDB peptide-MHC binding, cellular MHC/competitive/fluorescence; ≥ and ≤ were set here for values at or beyond the usual limits of such assays; conditions: source organism: Homo sapiens
[30] = source organism: Marburg virus - Musoke, Kenya, 1980
[31] = source organism: Mycobacterium tuberculosis

Question: With AEILSGRVI as the sequence, how does the Kd [1, 30] read?
Answer: ≥ 20 µM

Question: What about the Kd [2, 30] of the same sequence?
Answer: ≥ 20 µM

Question: And the Kd [3, 30]?
Answer: ≥ 20 µM

Question: What about the Kd [4] of the same sequence?
Answer: ≥ 20 µM

Question: What about the Kd [5, 30] of the same sequence?
Answer: ≥ 20 µM

Question: And the Kd [6]?
Answer: ≥ 20 µM

Question: And the Kd [7, 30]?
Answer: ≥ 20 µM

Question: And the Kd [8, 30]?
Answer: ≥ 20 µM

Question: What about the Kd [9] of the same sequence?
Answer: ≥ 20 µM

Question: And the Kd [10, 30]?
Answer: ≥ 20 µM

Question: What about the Kd [11, 30] of the same sequence?
Answer: 16.7 µM

Question: And the Kd [12, 30]?
Answer: ≥ 20 µM

Question: What about the Kd [13, 30] of the same sequence?
Answer: 0.0055 µM

Question: And the Kd [14]?
Answer: ≥ 21 µM

Question: What about the Kd [15, 30] of the same sequence?
Answer: ≥ 20 µM

Question: What about the Kd [16, 30] of the same sequence?
Answer: ≥ 20 µM

Question: And the Kd [17, 30]?
Answer: ≥ 20 µM

Question: What about the Kd ([18]; source organism: Orthomarburgvirus marburgense) of the same sequence?
Answer: ≥ 20 µM

Question: How did the Kd [19] turn out when FPLWWVSSI was run?
Answer: ≥ 20 µM

Question: What about the Kd [20] of the same sequence?
Answer: 2.3 µM

Question: What does the source list for GPASLPTAL?
Answer: Kd [1, 31]: ≥ 20 µM; Kd [2, 31]: ≥ 20 µM; Kd [21]: ≥ 20 µM; Kd [3, 31]: ≥ 20 µM; Kd [5, 31]: ≥ 20 µM; Kd [7, 31]: 1.24 µM; Kd [8, 31]: 0.0413 µM; Kd [22]: ≥ 20 µM; Kd [10, 31]: ≥ 20 µM; Kd [11, 31]: ≥ 20 µM; Kd [12, 31]: ≥ 20 µM; Kd [23]: ≥ 20 µM; Kd [13, 31]: ≥ 20 µM; Kd [24]: ≥ 20 µM; Kd [15, 31]: 2.82 µM; Kd [25]: ≥ 20 µM; Kd [16, 31]: ≥ 20 µM; Kd [17, 31]: ≥ 20 µM; Kd ([18]; source organism: Mycobacterium tuberculosis variant bovis BCG str. Pasteur 1173P2): ≥ 20 µM; Kd [26]: 0.679 µM

Question: Which Kd [27] does the source give for RIHDIAVQL here?
Answer: 0.196 µM

Question: What about the Kd [28] of the same sequence?
Answer: 0.111 µM

Question: How did the IC50 [29] turn out when SEFSDVDKL was run?
Answer: 1.4 µM
